Measured values: US20050037969A1 (ARBOR VITA, published 2005)
Ends that are not written are not given here. * marks the point of attachment. Biotin = O=C1N[C@H]2[C@H](CS[C@H]2CCCCC(=O)*)N1

B1: Spectrin (beta) C-terminal peptide AA32L, biotinylated (peptide)
peptide: Biotin-SFPPCGHRENVPGQSLVSFV
notes: Marked (S), sticky; also called Spectrin beta (S); Spectrin β
B2: CC CKR-4 C-terminal peptide AA44L (peptide)
peptide: Biotin-DTPSSSYTQSTMDHDLHDAL
notes: Only the last four residues are seen in the excerpts
B3: CC CKR-2 C-terminal peptide AA42L (peptide)
peptide: Biotin-GKGKSIGRAPEASLQDKEGA
notes: as for B2

These binders were tested against T1, GST-41.8 kD protein (KIAA0751) PDZ domain fusion protein (Mus musculus (Mouse), UniProt Q9EQZ7 682-763) (assay: A/G assays).
T1 construct: also called 41 kd; hypoth; not shown: glutathione S-transferase encoded by vector pGEX-3X (Pharmacia)
T1 sequence: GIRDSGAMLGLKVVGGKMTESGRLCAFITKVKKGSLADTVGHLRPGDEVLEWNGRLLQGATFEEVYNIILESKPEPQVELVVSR

Row | Binder | binding result
1 | Biotin-STNHSIGSTQSTPCSTSSMA (also called CD105 (endoglin)) [CD105 C-terminal peptide AA16L, biotinylated] | no binding
2 | Biotin-EVICYIEKPGVETLEDSVF [CDW125 (IL5R) C-terminal peptide AA28L, biotinylated] | no binding
3 | B1 | no binding
4 | Biotin-KKGTYLTDETHREVKFTSL [CD46 (Form 1) C-terminal peptide AA10L, biotinylated] | no binding

The binders below were run against T2, GST-PSD95 fusion protein (PDZ domains 1-3) (human, UniProt P31016 56-395 (rat entry)) (assay: A/G assays).
T2 construct: also called human post-synaptic density protein 95; not shown: glutathione S-transferase encoded by vector pGEX-3X (Pharmacia)
T2 sequence (P31016 other isoform, or with tags, fused parts or gaps): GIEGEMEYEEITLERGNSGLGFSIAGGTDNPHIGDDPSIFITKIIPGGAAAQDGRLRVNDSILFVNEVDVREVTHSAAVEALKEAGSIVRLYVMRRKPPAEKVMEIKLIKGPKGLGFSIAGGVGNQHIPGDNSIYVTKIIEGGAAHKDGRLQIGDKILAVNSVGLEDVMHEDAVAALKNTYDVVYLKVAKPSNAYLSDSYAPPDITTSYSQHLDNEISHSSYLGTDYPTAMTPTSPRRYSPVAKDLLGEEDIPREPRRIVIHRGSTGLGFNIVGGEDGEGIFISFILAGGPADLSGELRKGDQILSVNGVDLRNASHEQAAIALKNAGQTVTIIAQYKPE

Row | Binder | binding result
5 | Biotin-HKAEIHAQPSDKERLTSDA (also called CD49F (Aform, alpha6)) [CD49F C-terminal peptide AA12L, biotinylated] | no binding
6 | Biotin-STNHSIGSTQSTPCSTSSMA (also called CD105 (endoglin)) [CD105 C-terminal peptide AA16L, biotinylated] | no binding
7 | Biotin-EVICYIEKPGVETLEDSVF [CDW125 (IL5R) C-terminal peptide AA28L, biotinylated] | no binding
8 | Biotin-SPQPDSTDNDDYDDISAA [CD6 C-terminal peptide AA6L, biotinylated] | no binding
9 | Biotin-ARKANMKGSYSLVEAQKSKV (also called CD106) [VCAM1 C-terminal peptide AA17L, biotinylated] | no binding

These binders were tested against T3, SP short PDZ-GST fusion protein (Homo sapiens (Human), UniProt O43464 350-435) (assay: A/G assays).
T3 construct: The label SP short is not explained in the excerpts
T3 sequence: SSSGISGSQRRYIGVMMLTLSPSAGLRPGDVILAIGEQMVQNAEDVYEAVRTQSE

Row | Binder | binding result
10 | Biotin-QGDPALQDAGDSSRKEYFI (also called GC) [Glycophorin C C-terminal peptide AA37L, biotinylated] | no binding
11 | Biotin-PYGTAMEKAQLKPPATSDA (also called CD49E (alpha-4)) [CD49E C-terminal peptide AA11L, biotinylated] | no binding
12 | B2 | no binding
13 | Biotin-HKAEIHAQPSDKERLTSDA (also called CD49F (Aform, alpha6)) [CD49F C-terminal peptide AA12L, biotinylated] | no binding
14 | B3 | no binding
15 | Biotin-STNHSIGSTQSTPCSTSSMA (also called CD105 (endoglin)) [CD105 C-terminal peptide AA16L, biotinylated] | no binding
16 | Biotin-EVICYIEKPGVETLEDSVF [CDW125 (IL5R) C-terminal peptide AA28L, biotinylated] | no binding
17 | Biotin-SPQPDSTDNDDYDDISAA [CD6 C-terminal peptide AA6L, biotinylated] | no binding
18 | B1 | no binding
19 | Biotin-ARKANMKGSYSLVEAQKSKV (also called CD106) [VCAM1 C-terminal peptide AA17L, biotinylated] | no binding
20 | Biotin-KKGTYLTDETHREVKFTSL [CD46 (Form 1) C-terminal peptide AA10L, biotinylated] | no binding

Each binder was assayed against T4, GST-LIM protein PDZ domain fusion protein (Human, UniProt Q96HC4 2-85) (assay: A/G plate assays, Table 2 matrix).
T4 construct: also called Human LIM protein; not shown: glutathione S-transferase encoded by vector pGEX-3X (Pharmacia)
T4 sequence: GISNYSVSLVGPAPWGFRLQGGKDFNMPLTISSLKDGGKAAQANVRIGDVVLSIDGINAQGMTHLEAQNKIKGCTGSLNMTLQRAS

Row | Binder | binding result
21 | Biotin-STNHSIGSTQSTPCSTSSMA (also called CD105 (endoglin)) [CD105 C-terminal peptide AA16L, biotinylated] | binds

The binders below were run against T5, GST-PTN-4 PDZ domain fusion protein (Homo sapiens (Human), UniProt P29074 517-605) (assay: A/G plate assays, Table 2 matrix).
T5 construct: also called protein-tyrosine phosphatase meg1; not shown: glutathione S-transferase encoded by vector pGEX-3X (Pharmacia)
T5 sequence: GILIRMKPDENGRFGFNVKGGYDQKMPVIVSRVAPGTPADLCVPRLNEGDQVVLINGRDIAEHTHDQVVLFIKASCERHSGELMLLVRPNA

Row | Binder | binding result
22 | Biotin-EVICYIEKPGVETLEDSVF [CDW125 (IL5R) C-terminal peptide AA28L, biotinylated] | binds
23 | B1 | binds

The binders below were run against T1, GST-41.8 kD protein (KIAA0751) PDZ … (assay: A/G plate assays, Table 2 matrix).

Row | Binder | binding result
24 | Biotin-QGDPALQDAGDSSRKEYFI (also called GC) [Glycophorin C C-terminal peptide AA37L, biotinylated] | binds
25 | Biotin-HKAEIHAQPSDKERLTSDA (also called CD49F (Aform, alpha6)) [CD49F C-terminal peptide AA12L, biotinylated] | binds
26 | Biotin-SPQPDSTDNDDYDDISAA [CD6 C-terminal peptide AA6L, biotinylated] | binds
27 | Biotin-ARKANMKGSYSLVEAQKSKV (also called CD106) [VCAM1 C-terminal peptide AA17L, biotinylated] | binds

The binders below were run against T6, GST-AF6 PDZ domain fusion protein (Homo sapiens (Human), UniProt P55196 1001-1093) (assay: A/G plate assays, Table 2 matrix).
T6 construct: also called af-6 protein; not shown: glutathione S-transferase encoded by vector pGEX-3X (Pharmacia)
T6 sequence: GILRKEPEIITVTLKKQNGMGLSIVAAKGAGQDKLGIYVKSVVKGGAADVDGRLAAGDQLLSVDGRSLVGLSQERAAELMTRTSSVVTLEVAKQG

Row | Binder | binding result
28 | Biotin-QGDPALQDAGDSSRKEYFI (also called GC) [Glycophorin C C-terminal peptide AA37L, biotinylated] | binds
29 | B1 | binds

These binders were tested against T7, GST-RGS12 PDZ domain fusion protein (human, UniProt O14924 17-85) (assay: A/G plate assays, Table 2 matrix).
T7 construct: also called human regulator of G-protein signalling 12; not shown: glutathione S-transferase encoded by vector pGEX-3X (Pharmacia)
T7 sequence: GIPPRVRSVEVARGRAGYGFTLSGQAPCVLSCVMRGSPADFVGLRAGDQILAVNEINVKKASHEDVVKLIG

Row | Binder | binding result
30 | Biotin-EVICYIEKPGVETLEDSVF [CDW125 (IL5R) C-terminal peptide AA28L, biotinylated] | binds

These binders were tested against T8, GST-TIAM1 PDZ domain fusion protein (Homo sapiens (Human), UniProt Q13009 845-931) (assay: A/G plate assays, Table 2 matrix).
T8 construct: also called TLAM1; T-lymphoma invasion and metastasis inducing protein 1; not shown: glutathione S-transferase encoded by vector pGEX-3X (Pharmacia)
T8 sequence (Q13009 other isoform, or with tags, fused parts or gaps): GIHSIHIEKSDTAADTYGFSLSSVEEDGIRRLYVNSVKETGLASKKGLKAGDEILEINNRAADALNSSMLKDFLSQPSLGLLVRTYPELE

Row | Binder | binding result
31 | Biotin-ARKANMKGSYSLVEAQKSKV (also called CD106) [VCAM1 C-terminal peptide AA17L, biotinylated] | binds

Each binder was assayed against T9, GST-KIAA0303 PDZ domain fusion protein (Homo sapiens (Human), UniProt O15021 1138-1228) (assay: A/G plate assays, Table 2 matrix).
T9 construct: also called K303; not shown: glutathione S-transferase encoded by vector pGEX-3X (Pharmacia)
T9 sequence: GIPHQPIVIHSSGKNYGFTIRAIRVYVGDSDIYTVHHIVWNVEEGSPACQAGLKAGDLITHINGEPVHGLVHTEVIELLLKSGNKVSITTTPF

Row | Binder | binding result
32 | B1 | binds
33 | Biotin-ARKANMKGSYSLVEAQKSKV (also called CD106) [VCAM1 C-terminal peptide AA17L, biotinylated] | binds

These binders were tested against T10, KIAA0807 (PDZ domain)-GST fusion protein (human, UniProt Q6P0Q8 1104-1192) (assay: A/G plate assays, Table 2 matrix).
T10 construct: also called K807; KIAA807; not shown: glutathione S-transferase encoded by vector pGEX-3X (Pharmacia)
T10 sequence: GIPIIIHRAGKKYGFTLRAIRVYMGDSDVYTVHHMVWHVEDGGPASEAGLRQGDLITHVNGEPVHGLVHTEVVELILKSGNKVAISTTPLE

Row | Binder | binding result
34 | B1 | binds
35 | Biotin-ARKANMKGSYSLVEAQKSKV (also called CD106) [VCAM1 C-terminal peptide AA17L, biotinylated] | binds
36 | Biotin-KKGTYLTDETHREVKFTSL [CD46 (Form 1) C-terminal peptide AA10L, biotinylated] | binds

The binders below were run against T2, GST-PSD95 fusion protein (PDZ domains …) (assay: A/G plate assays, Table 2 matrix).

Row | Binder | binding result
37 | Biotin-QGDPALQDAGDSSRKEYFI (also called GC) [Glycophorin C C-terminal peptide AA37L, biotinylated] | binds
38 | B1 | binds

What follows are binders tested against T2, GST-PSD95 fusion protein (PDZ domains …) (assay: G assay: biotinylated peptide on plate-bound GST-PDZ fusion, OD 450 nm).

Row | Binder | binding result
39 | Biotin-PYGTAMEKAQLKPPATSDA (also called CD49E (alpha-4)) [CD49E C-terminal peptide AA11L, biotinylated] | no binding
40 | B2 | no binding
41 | B3 | no binding

What follows are binders tested against T2, GST-PSD95 fusion protein (PDZ domains …) (assay: G assay: biotinylated peptide on plate-bound GST-PDZ fusion, streptavidin-HRP, OD 450 nm).

Row | Binder | binding result
42 | Biotin-KKGTYLTDETHREVKFTSL [CD46 (Form 1) C-terminal peptide AA10L, biotinylated] | binds

These binders were tested against T1, GST-41.8 kD protein (KIAA0751) PDZ … in the same assay as above.

Row | Binder | binding result
43 | Biotin-PYGTAMEKAQLKPPATSDA (also called CD49E (alpha-4)) [CD49E C-terminal peptide AA11L, biotinylated] | binds

Each binder was assayed against T1, GST-41.8 kD protein (KIAA0751) PDZ … (assay: G assay: biotinylated peptide on plate-bound GST-PDZ fusion, OD 450 nm; no GST-alone bar on the sheet).

Row | Binder | binding result
44 | B2 | no binding
45 | B3 | no binding
